For this assay, the target named is acyl-carrier-protein synthase (AcpS) from Staphylococcus aureus (Staphylococcus aureus). Nature of the assay: crystal structure.

The source of these data is paper PMC3447402.

Usually stoichiometry N stands for a count of units in the complex or per binding partner.

The substance “acyl-carrier-protein synthase (AcpS) from Staphylococcus aureus (enzyme)” came in with a stoichiometry N of 3.
